Source: paper PMC2804263 (Biochemistry, 2009)

Molecular target: the molecule itself
Test: crystal structure

B1: Bovine S100B (Ca^2+-S100B in the SBiX crystal structures) (natural protein)
chain: MSELEKAVVALIDVFHQYSGREGDKHKLKKSELKELINNELSHFLEEIKEQEVVDKVMETLDSDGDGECDFQEFMAFVAMITTACHEFFEHE
binding result: binds
